According to patent US20200002431A1 (Seagen, published 2020):

T1: human BCMA (B-cell maturation antigen, CD269) expressed on cells (human, UniProt Q02223 1-184)
T1 construct: Endogenous on myeloma lines (NCI-H929, U266, JJN3) or a full-length clone transfected into HEK 293 cells; also called hBCMA; BCMA expressed on NCI-H929 cells
T1 sequence: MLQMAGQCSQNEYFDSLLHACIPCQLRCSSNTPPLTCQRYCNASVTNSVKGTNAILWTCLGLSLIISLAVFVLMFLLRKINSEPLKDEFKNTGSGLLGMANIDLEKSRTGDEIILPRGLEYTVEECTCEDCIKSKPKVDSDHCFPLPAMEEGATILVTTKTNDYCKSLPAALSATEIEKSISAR


The binders below were run against T1, human BCMA (B-cell maturation antigen, …) (assay: cell binding, NCI-H929 cells expressing BCMA, 3-pt assay).
Description: The six humanized heavy chains and four humanized light chains were tested in all 24 possible permutations for binding to BCMA expressed on NCI-H929 cells, which express about 50,000 molecules of BCMA per cell.

| Binder | binding result |
| --- | --- |
| hSG16.45 vH1 vK1 (antibody, V domains shown, also called hSG16.45 1) VH: EVQLLESGGGLVQPGGSLRLSCAASGFTFNDHWMTWIRQAPGKGLEWISSITNTGGATYYLDSVKGRFTISRDNSKNTLYLQMNSLRAEDTAVYYCTSPGLYFDYWGQGVMVTVSS VL: EIVLTQSPGTLSASPGERVTISCRASSSVSVMYWYQHKPGQAPRLLIYSTSSLASGVPDRFSGSGSGTDYTLTISRMEPEDFAVYYCHQWSSDPPTFGQGTKLEIKR | binds |
| hSG16.45 vH1 vK2 (antibody, V domains shown, also called hSG16.45 2) VH: EVQLLESGGGLVQPGGSLRLSCAASGFTFNDHWMTWIRQAPGKGLEWISSITNTGGATYYLDSVKGRFTISRDNSKNTLYLQMNSLRAEDTAVYYCTSPGLYFDYWGQGVMVTVSS VL: EIVLTQSPGTLSLSPGERATLSCRASSSVSVMYWYQQKPGQAPRLLIYSTSSLASGIPDRFSGSGSGTDFTLTISRLEPEDFAVYYCHQWSSDPPTFGQGTKLEIKR | binds |
| hSG16.45 vH1 vK3 (antibody, V domains shown, also called hSG16.45 3) VH: EVQLLESGGGLVQPGGSLRLSCAASGFTFNDHWMTWIRQAPGKGLEWISSITNTGGATYYLDSVKGRFTISRDNSKNTLYLQMNSLRAEDTAVYYCTSPGLYFDYWGQGVMVTVSS VL: EIVLTQSPGTLSLSPGERATISCRASSSVSVMYWYQHKPGQAPRLLIYSTSSLASGVPDRFSGSGSGTDYTLTISRLEPEDFAVYYCHQWSSDPPTFGQGTKLEIKR | binds |
| hSG16.45 vH1 vK5 (antibody, V domains shown, also called hSG16.45 4) VH: EVQLLESGGGLVQPGGSLRLSCAASGFTFNDHWMTWIRQAPGKGLEWISSITNTGGATYYLDSVKGRFTISRDNSKNTLYLQMNSLRAEDTAVYYCTSPGLYFDYWGQGVMVTVSS VL: EIVLTQSPGTLSLSPGERATLSCLATSSVSVMYWYQHKPGQAPRLLIYSTSSLASGIPDRFSGSGSGTDYTLTISRLEPEDFAVYYCHQWSSDPPTFGQGTKLEIKR | binds |
| hSG16.45 vH3 vK5 (antibody, V domains shown, also called hSG16.45 12) VH: EVQLLESGGGLVQPGGSLRLSCAASGFTFNDHWMTWIRQAPGKGLEWISAITNTGGATYYADSVKGRFTISRDNSKSTLYLQMNSLRAEDTAVYYCTSPGLYFDYWGQGVMVTVSS VL: EIVLTQSPGTLSLSPGERATLSCLATSSVSVMYWYQHKPGQAPRLLIYSTSSLASGIPDRFSGSGSGTDYTLTISRLEPEDFAVYYCHQWSSDPPTFGQGTKLEIKR | binds |
| hSG16.45 vH4 vK1 (antibody, V domains shown, also called hSG16.45 13) VH: EVQLLESGGGLVQPGGSLRLSCAASGFTFNDHWMTWVRQAPGKGLEWISSITNTGGATYYADSVKGRFTISRDNSKSTLYLQMNSLRAEDTAVYYCTSPGLYFDYWGQGTMVTVSS VL: EIVLTQSPGTLSASPGERVTISCRASSSVSVMYWYQHKPGQAPRLLIYSTSSLASGVPDRFSGSGSGTDYTLTISRMEPEDFAVYYCHQWSSDPPTFGQGTKLEIKR | binds |
| hSG16.45 vH4 vK2 (antibody, V domains shown, also called hSG16.45 14) VH: EVQLLESGGGLVQPGGSLRLSCAASGFTFNDHWMTWVRQAPGKGLEWISSITNTGGATYYADSVKGRFTISRDNSKSTLYLQMNSLRAEDTAVYYCTSPGLYFDYWGQGTMVTVSS VL: EIVLTQSPGTLSLSPGERATLSCRASSSVSVMYWYQQKPGQAPRLLIYSTSSLASGIPDRFSGSGSGTDFTLTISRLEPEDFAVYYCHQWSSDPPTFGQGTKLEIKR | binds |
| hSG16.45 vH4 vK3 (antibody, V domains shown, also called hSG16.45 15) VH: EVQLLESGGGLVQPGGSLRLSCAASGFTFNDHWMTWVRQAPGKGLEWISSITNTGGATYYADSVKGRFTISRDNSKSTLYLQMNSLRAEDTAVYYCTSPGLYFDYWGQGTMVTVSS VL: EIVLTQSPGTLSLSPGERATISCRASSSVSVMYWYQHKPGQAPRLLIYSTSSLASGVPDRFSGSGSGTDYTLTISRLEPEDFAVYYCHQWSSDPPTFGQGTKLEIKR | binds |
| hSG16.45 vH4 vK5 (antibody, V domains shown, also called hSG16.45 16) VH: EVQLLESGGGLVQPGGSLRLSCAASGFTFNDHWMTWVRQAPGKGLEWISSITNTGGATYYADSVKGRFTISRDNSKSTLYLQMNSLRAEDTAVYYCTSPGLYFDYWGQGTMVTVSS VL: EIVLTQSPGTLSLSPGERATLSCLATSSVSVMYWYQHKPGQAPRLLIYSTSSLASGIPDRFSGSGSGTDYTLTISRLEPEDFAVYYCHQWSSDPPTFGQGTKLEIKR | binds |
| hSG16.45 vH5 vK1 (antibody, V domains shown, also called hSG16.45 17) VH: EVQLVESGGGLVQPGGSLRLSCAASGFTFNDHWMTWVRQAPGKGLVWVSSITNTGGATYYADSVKGRFTISRDNAKNTLYLQMNSLRAEDTAVYYCTSPGLYFDYWGQGTMVTVSS VL: EIVLTQSPGTLSASPGERVTISCRASSSVSVMYWYQHKPGQAPRLLIYSTSSLASGVPDRFSGSGSGTDYTLTISRMEPEDFAVYYCHQWSSDPPTFGQGTKLEIKR | binds |
| hSG16.45 vH5 vK2 (antibody, V domains shown, also called hSG16.45 18) VH: EVQLVESGGGLVQPGGSLRLSCAASGFTFNDHWMTWVRQAPGKGLVWVSSITNTGGATYYADSVKGRFTISRDNAKNTLYLQMNSLRAEDTAVYYCTSPGLYFDYWGQGTMVTVSS VL: EIVLTQSPGTLSLSPGERATLSCRASSSVSVMYWYQQKPGQAPRLLIYSTSSLASGIPDRFSGSGSGTDFTLTISRLEPEDFAVYYCHQWSSDPPTFGQGTKLEIKR | binds |
| hSG16.45 vH5 vK3 (antibody, V domains shown, also called hSG16.45 19) VH: EVQLVESGGGLVQPGGSLRLSCAASGFTFNDHWMTWVRQAPGKGLVWVSSITNTGGATYYADSVKGRFTISRDNAKNTLYLQMNSLRAEDTAVYYCTSPGLYFDYWGQGTMVTVSS VL: EIVLTQSPGTLSLSPGERATISCRASSSVSVMYWYQHKPGQAPRLLIYSTSSLASGVPDRFSGSGSGTDYTLTISRLEPEDFAVYYCHQWSSDPPTFGQGTKLEIKR | binds |
| hSG16.45 vH5 vK5 (antibody, V domains shown, also called hSG16.45 20) VH: EVQLVESGGGLVQPGGSLRLSCAASGFTFNDHWMTWVRQAPGKGLVWVSSITNTGGATYYADSVKGRFTISRDNAKNTLYLQMNSLRAEDTAVYYCTSPGLYFDYWGQGTMVTVSS VL: EIVLTQSPGTLSLSPGERATLSCLATSSVSVMYWYQHKPGQAPRLLIYSTSSLASGIPDRFSGSGSGTDYTLTISRLEPEDFAVYYCHQWSSDPPTFGQGTKLEIKR | binds |
| hSG16.45 vH6 vK1 (antibody, V domains shown, also called hSG16.45 21) VH: EVQLVESGGGLVQPGRSLRLSCAASGFTFNDHWMTWVRQAPGKGLEWVSGITNTGGATYYADSVKGRFTISRDNAKNSLYLQMNSLRAEDTALYYCTSPGLYFDYWGQGTMVTVSS VL: EIVLTQSPGTLSASPGERVTISCRASSSVSVMYWYQHKPGQAPRLLIYSTSSLASGVPDRFSGSGSGTDYTLTISRMEPEDFAVYYCHQWSSDPPTFGQGTKLEIKR | binds |
| hSG16.45 vH6 vK3 (antibody, V domains shown, also called hSG16.45 23) VH: EVQLVESGGGLVQPGRSLRLSCAASGFTFNDHWMTWVRQAPGKGLEWVSGITNTGGATYYADSVKGRFTISRDNAKNSLYLQMNSLRAEDTALYYCTSPGLYFDYWGQGTMVTVSS VL: EIVLTQSPGTLSLSPGERATISCRASSSVSVMYWYQHKPGQAPRLLIYSTSSLASGVPDRFSGSGSGTDYTLTISRLEPEDFAVYYCHQWSSDPPTFGQGTKLEIKR | binds |
| hSG16.45 vH6 vK2 (antibody, V domains shown, also called hSG16.45 22) VH: EVQLVESGGGLVQPGRSLRLSCAASGFTFNDHWMTWVRQAPGKGLEWVSGITNTGGATYYADSVKGRFTISRDNAKNSLYLQMNSLRAEDTALYYCTSPGLYFDYWGQGTMVTVSS VL: EIVLTQSPGTLSLSPGERATLSCRASSSVSVMYWYQQKPGQAPRLLIYSTSSLASGIPDRFSGSGSGTDFTLTISRLEPEDFAVYYCHQWSSDPPTFGQGTKLEIKR | binds |
| hSG16.45 vH6 vK5 (antibody, V domains shown, also called hSG16.45 24) VH: EVQLVESGGGLVQPGRSLRLSCAASGFTFNDHWMTWVRQAPGKGLEWVSGITNTGGATYYADSVKGRFTISRDNAKNSLYLQMNSLRAEDTALYYCTSPGLYFDYWGQGTMVTVSS VL: EIVLTQSPGTLSLSPGERATLSCLATSSVSVMYWYQHKPGQAPRLLIYSTSSLASGIPDRFSGSGSGTDYTLTISRLEPEDFAVYYCHQWSSDPPTFGQGTKLEIKR | binds |
| cSG16.45 (antibody, V domains shown, also called chimeric SG16.45) VH: EVQLVESGGGLVQPGRSLKLSCVASGFTFNDHWMTWIRQAPGRGLEWISSITNTGGATYYLDSVKGRFTISRDNAKSTLYLQMNSLRSEDTATYYCTSPGLYFDYWGQGVMVTVSS VL: EIVLTQSPTTTAASPGEKVTITCLATSSVSVMYWYQHKSGASPKLLIYSTSSLASGVPDRFSGSGSGTSYSLTINTMEAEDAATYYCHQWSSDPPTFGSGTKLEIKR | binds |
| rat SG16.45 antibody (antibody, V domains shown, Rat monoclonal antibody; also called rSG16.45; hybridoma well 45) VH: EVQLVESGGGLVQPGRSLKLSCVASGFTFNDHWMTWIRQAPGRGLEWISSITNTGGATYYLDSVKGRFTISRDNAKSTLYLQMNSLRSEDTATYYCTSPGLYFDYWGQGVMVTVSS VL: EIVLTQSPTTTAASPGEKVTITCLATSSVSVMYWYQHKSGASPKLLIYSTSSLASGVPDRFSGSGSGTSYSLTINTMEAEDAATYYCHQWSSDPPTFGSGTKLEIKR | binds |
| hSG16.17 vH3 vK2 (antibody, V domains shown, also called hSG16.17 9; VH3 VK2 humanized antibody) VH: QVQLVQSGAEVKKPGASVKLSCKASGYTFTDYYIHWVRQAPGQGLEWIGYINPNSGYTNYAQKFQGRATMTADKSINTAYVELSRLRSDDTAVYFCTRYMWERVTGFFDFWGQGTMVTVSS VL: DIQMTQSPSSVSASVGDRVTITCLASEDISDDLAWYQQKPGKAPKVLVYTTSSLQSGVPSRFSGSGSGTDFTLTISSLQPEDFATYFCQQTYKFPPTFGGGTKVEIKR | binds |
| hSG16.17 vH1 vK2 (antibody, V domains shown, also called hSG16.17 1) VH: QVQLVQSRAEVKKPGASVKLSCKASGYTFTDYYIHWVRQAPGQGLEWIGYINPNSGYTKYNENFKTRATMTADKSINTAYVELSRLRSDDTAVYFCTRYMWERVTGFFDFWGQGTMVTVSS VL: DIQMTQSPSSVSASVGDRVTITCLASEDISDDLAWYQQKPGKAPKVLVYTTSSLQSGVPSRFSGSGSGTDFTLTISSLQPEDFATYFCQQTYKFPPTFGGGTKVEIKR | binds |
